Targets include Gal4BD-UBXD1ΔPUB; Gal4BD-UBXD1ΔUBX; Gal4BD-UBXD1ΔVIM.
Holding throughout (experiment): two-hybrid; quantitative yeast two-hybrid, para-nitrophenyl-alpha-galactoside assay; interaction strength as percentage of wildtype GAL4BD-UBXD1; three independent experiments with five yeast transformands per condition

“Gal4AD-p97 (from UniProt P55072 1-806) (natural protein)”: the interaction strength as percentage of wildtype GAL4BD-UBXD1 (% of wildtype GAL4BD-UBXD1) was 13.8 in the assay with Gal4BD-UBXD1ΔPUB, 29.2 with Gal4BD-UBXD1ΔUBX and 8.1 with Gal4BD-UBXD1ΔVIM.

These data come from PMC6098094.
